Data as given in PMC6587167.

How the values were obtained:
[1] = western blot, MIA-PACA2; conditions: glycan lost; control: wild-type Sox2 overexpression
[2] = dual luciferase Sox2 reporter; conditions: glycan lost; control: untreated / control siRNA / scrambled control
[3] = western blot, S2VP10 and L3.6PL; conditions: glycan lost; control: untreated cells
[4] = cycloheximide chase, western blot, endogenous Sox2; conditions: glycan lost; control: untreated / scrambled control S2VP10

Row | Substance | expression_or_secretion [1] | other: transcriptional activity [2] | expression_or_secretion [3] | degradation_or_half_life [4]
1 | SOX2: S246A | decreases |  |  | 
2 | SOX2: siOGT |  | decreases |  | 
3 | SOX2: OSMI |  | decreases | decreases | decreases
